Measured values reported in PMC8053098.

Target: Escherichia coli MnmA, as-purified (aerobically purified, tag removed) (Escherichia coli) (UniProt P25745)
Assay: SEC-MALS

stoichiometry N: 2
Substance: Escherichia coli MnmA, as-purified (aerobically purified, tag removed) (from UniProt P25745 1-368) (enzyme)
